± gives the standard error. For some of these results: This sample holds only a part of the variants without activity.
B1: glmS ribozyme (parent)
chain: AUAAAAGCGCCAGAACUACAGAAAUGUAGUUGACGAGGAGGAGGUUUAUCGAAUUUUCGGCGGAUGCCUCCAAA

Key:
Settings in all cases: with glucosamine-6-phosphate
[1] = variants of: B1; assay: kcat; higher = faster cleavage; RNA array
Outline: (§1)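 kobs was derived by fitting per-tile medians to one- or two-exponential decays after normalising signals to baseline and to non-cleaving reference variants. Those signals came from barcoded ribozyme variants transcribed in situ by E. coli RNA polymerase on sequenced MiSeq chips, followed through a hybridised Cy3 probe at 37 °C and imaged over ~14 h. Glucosamine-6-phosphate (40 μM to 10 mM) in HEPES/KCl/Mg(OAc)2 buffer was flowed in. Weighted Michaelis–Menten fits across concentrations then gave kcat and KM.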

[2] = variants of: B1; assay: self-cleavage kobs at 40 uM GlcN6P; higher = faster cleavage; RNA array
Outline: as §1

[3] = variants of: B1; assay: self-cleavage kobs at 160 uM GlcN6P; higher = faster cleavage; RNA array
Outline: as §1

[4] = variants of: B1; assay: self-cleavage kobs at 640 uM GlcN6P; higher = faster cleavage; RNA array
Outline: as §1

[5] = variants of: B1; assay: self-cleavage kobs at 2500 uM GlcN6P; higher = faster cleavage; RNA array
Outline: as §1

[6] = variants of: B1; assay: self-cleavage kobs at 10000 uM GlcN6P; higher = faster cleavage; RNA array
Outline: as §1

[7] = variants of: B1; assay: KM; higher = weaker cofactor use; RNA array
Outline: as §1

Variant | kcat [1] | self-cleavage kobs at 40 uM GlcN6P [2] | self-cleavage kobs at 160 uM GlcN6P [3] | self-cleavage kobs at 640 uM GlcN6P [4] | self-cleavage kobs at 2500 uM GlcN6P [5] | self-cleavage kobs at 10000 uM GlcN6P [6] | KM [7]
AUAAAAGCGCCAGAACUACAGAAAUGUAGUUGACGAGGAGGAGGUGUAUCGAAUUUUCGGCGGAUGCCUCGAAA [U46G C71G] | 0.000535 ± 0.00017 s⁻¹ | 4.15e-05 ± 1.4e-05 s⁻¹ | 5.99e-05 ± 1.8e-05 s⁻¹ | 0.000392 ± 7.6e-05 s⁻¹ | 0.000849 ± 0.00013 s⁻¹ | 0.000435 ± 5.5e-05 s⁻¹ | –
AUAAAAGCGCCAGAACUACAGAAAUGUAGUUGACGAGGAGGAGGUGUAUCGAAUUUUCGGCGGAUGCCUCAAAA [U46G C71A] | 0.00159 ± 0.00031 s⁻¹ | 5.65e-05 ± 1.3e-05 s⁻¹ | – | 0.000943 ± 0.00016 s⁻¹ | 0.000985 ± 0.00028 s⁻¹ | 0.00143 ± 0.00019 s⁻¹ | 935 ± 350 µM
AUAAAAGCGCCAGAACUACAGAAAUGUAGUUGACGAGGAGGAGGUGUAUCGAAUUUUCGGCGGAUGCCUCUAAA [U46G C71U] | 0.00721 ± 0.0015 s⁻¹ | 0.00018 ± 1.7e-05 s⁻¹ | 0.000349 ± 8.8e-05 s⁻¹ | 0.00219 ± 0.00026 s⁻¹ | 0.00497 ± 0.00059 s⁻¹ | 0.00576 ± 0.00058 s⁻¹ | 1750 ± 550 µM
AUAAAAGCGCCAGAACUACAGAAAUGUAGUUGACGAGGAGGAGGUGUAUCGAAUUUUGGGCGGAUGCCUCCAAA [U46G C58G] | 2.68e-05 ± 1.4e-06 s⁻¹ | – | < 1e-05 s⁻¹ | – | – | 2.44e-05 ± 1.2e-05 s⁻¹ | 892 ± 260 µM
AUAAAAGCGCCAGAACUACAGAAAUGUAGUUGACGAGGAGGAGGUGUAUCGAAUUUUCGGCGGAUGUCUCCAAA [U46G C67U] | 0.00338 ± 0.0012 s⁻¹ | 0.000125 ± 1.7e-05 s⁻¹ | 0.000317 ± 5.3e-05 s⁻¹ | 0.00143 ± 0.00015 s⁻¹ | 0.00176 ± 0.00028 s⁻¹ | 0.00457 ± 0.00079 s⁻¹ | 1200 ± 590 µM
AUAAAAGCGCCAGAACUACAGAAAUGUAGUUGACGAGGAGGAGGUGUAUCGAAUUUUCGGCGGAUGGCUCCAAA [U46G C67G] | 0.000343 ± 3.5e-05 s⁻¹ | 2.99e-05 ± 1.3e-05 s⁻¹ | 2.86e-05 ± 8.4e-06 s⁻¹ | 0.000112 ± 1.1e-05 s⁻¹ | 0.000241 ± 2.8e-05 s⁻¹ | 0.000295 ± 2.3e-05 s⁻¹ | 1360 ± 310 µM

— the supplement of paper PMC7125110
